Results: paper PMC10397247
Where two headings read alike, the source gives them in different places.

Legend:
4H264-bH = target: T1, 4H264-bH; test: two-hybrid library CCNG1;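 further: natural log of median RNA to DNA barcode read ratio; higher means stronger binding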
T1 chain: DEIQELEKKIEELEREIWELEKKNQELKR

4H56-bH = target: T2, 4H56-bH; test: two-hybrid library CCNG1;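 further: natural log of median RNA to DNA barcode read ratio; higher means stronger binding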
T2 chain: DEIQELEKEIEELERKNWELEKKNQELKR

4H3297-bH = target: T3, 4H3297-bH; test: two-hybrid library CCNG1;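 further: natural log of median RNA to DNA barcode read ratio; higher means stronger binding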
T3 chain: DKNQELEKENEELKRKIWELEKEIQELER

4H717-bA = target: T4, 4H717-bA; test: two-hybrid library CCNG1;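 further: natural log of median RNA to DNA barcode read ratio; higher means stronger binding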
T4 chain: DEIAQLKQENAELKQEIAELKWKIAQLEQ

4H3041-bH = target: T5, 4H3041-bH; test: two-hybrid library CCNG1
T5 chain: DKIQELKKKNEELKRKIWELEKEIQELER

4H2760-bH = target: T6, 4H2760-bH; test: two-hybrid library CCNG1
T6 chain: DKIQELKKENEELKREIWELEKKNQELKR

4H949-bH = target: T7, 4H949-bH; test: two-hybrid library CCNG1
T7 chain: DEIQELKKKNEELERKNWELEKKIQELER

4H3974-bA = target: T8, 4H3974-bA; test: two-hybrid library CCNG1
T8 chain: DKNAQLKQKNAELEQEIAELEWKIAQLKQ

4H349-bH = target: T9, 4H349-bH; test: two-hybrid library CCNG1
T9 chain: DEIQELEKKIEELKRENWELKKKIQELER

4H796-bH = target: T10, 4H796-bH; test: two-hybrid library CCNG1
T10 chain: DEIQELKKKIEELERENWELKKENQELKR

4H2931-bH = target: T11, 4H2931-bH; test: two-hybrid library CCNG1
T11 chain: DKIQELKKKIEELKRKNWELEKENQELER

4H2859-bH = target: T12, 4H2859-bH; test: two-hybrid library CCNG1
T12 chain: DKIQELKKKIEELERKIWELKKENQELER

4H584-bH = target: T13, 4H584-bH; test: two-hybrid library CCNG1
T13 chain: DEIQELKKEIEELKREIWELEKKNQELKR

4H3381-bH = target: T14, 4H3381-bH; test: two-hybrid library CCNG1
T14 chain: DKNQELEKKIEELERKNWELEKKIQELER

4H2518-bH = target: T15, 4H2518-bH; test: two-hybrid library CCNG1
T15 chain: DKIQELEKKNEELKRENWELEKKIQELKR

4H2585-bH = target: T16, 4H2585-bH; test: two-hybrid library CCNG1
T16 chain: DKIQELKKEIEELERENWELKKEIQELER

4H932-bH = target: T17, 4H932-bH; test: two-hybrid library CCNG1
T17 chain: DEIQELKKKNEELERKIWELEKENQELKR

4H3364-bH = target: T18, 4H3364-bH; test: two-hybrid library CCNG1
T18 chain: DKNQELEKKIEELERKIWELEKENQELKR

4H730-bH = target: T19, 4H730-bH; test: two-hybrid library CCNG1
T19 chain: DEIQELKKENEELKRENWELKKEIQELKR

4H967-bA = target: T20, 4H967-bA; test: two-hybrid library CCNG1
T20 chain: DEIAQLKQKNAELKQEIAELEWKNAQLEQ

4H908-bA = target: T21, 4H908-bA; test: two-hybrid library CCNG1
T21 chain: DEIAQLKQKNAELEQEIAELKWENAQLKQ

O5-bP = target: T22, O5-bP; test: two-hybrid library CCNG1
T22 chain: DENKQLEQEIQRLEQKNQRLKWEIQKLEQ

4H918-bA = target: T23, 4H918-bA; test: two-hybrid library CCNG1
T23 chain: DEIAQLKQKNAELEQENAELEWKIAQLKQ

4H953-bA = target: T24, 4H953-bA; test: two-hybrid library CCNG1
T24 chain: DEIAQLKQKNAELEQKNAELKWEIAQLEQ

O14-bA = target: T25, O14-bA; test: two-hybrid library CCNG1
T25 chain: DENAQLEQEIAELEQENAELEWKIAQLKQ

4H883-bA = target: T26, 4H883-bA; test: two-hybrid library CCNG1
T26 chain: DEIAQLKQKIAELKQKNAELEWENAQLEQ

P8A-bP = target: T27, P8A-bP; test: two-hybrid library CCNG1
T27 chain: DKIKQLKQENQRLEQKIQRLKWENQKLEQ

P5A-bP = target: T28, P5A-bP; test: two-hybrid library CCNG1
T28 chain: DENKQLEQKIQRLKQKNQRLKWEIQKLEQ

P6A-bP = target: T29, P6A-bP; test: two-hybrid library CCNG1
T29 chain: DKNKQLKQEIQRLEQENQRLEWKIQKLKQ

P7A-bP = target: T30, P7A-bP; test: two-hybrid library CCNG1
T30 chain: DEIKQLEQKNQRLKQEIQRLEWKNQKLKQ

P9A-bP = target: T31, P9A-bP; test: two-hybrid library CCNG1
T31 chain: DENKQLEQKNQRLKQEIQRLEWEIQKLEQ

O2-AA = target: T32, O2-AA; test: two-hybrid library CCmax
T32 chain: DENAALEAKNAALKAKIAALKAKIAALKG

O4-AA = target: T33, O4-AA; test: two-hybrid library CCmax; settings: mean of both orientations
T33 chain: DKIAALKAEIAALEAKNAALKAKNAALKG

P9-AA = target: T34, P9-AA; test: two-hybrid library CCmax; settings: mean of both orientations
T34 chain: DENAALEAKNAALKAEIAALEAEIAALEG

O14-AA = target: T35, O14-AA; test: two-hybrid library CCmax
T35 chain: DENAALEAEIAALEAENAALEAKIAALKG

O5-AA = target: T36, O5-AA; test: two-hybrid library CCmax; settings: mean of both orientations
T36 chain: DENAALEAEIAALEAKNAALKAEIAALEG

O6-AA = target: T37, O6-AA; test: two-hybrid library CCmax; settings: mean of both orientations
T37 chain: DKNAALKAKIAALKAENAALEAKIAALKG

O7-AA = target: T38, O7-AA; test: two-hybrid library CCmax; settings: mean of both orientations
T38 chain: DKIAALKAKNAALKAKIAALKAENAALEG

O8-AA = target: T39, O8-AA; test: two-hybrid library CCmax; settings: mean of both orientations
T39 chain: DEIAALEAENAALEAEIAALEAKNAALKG

P10-AA = target: T40, P10-AA; test: two-hybrid library CCmax; settings: mean of both orientations
T40 chain: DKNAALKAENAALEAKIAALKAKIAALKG

O3-AA = target: T41, O3-AA; test: two-hybrid library CCmax; settings: mean of both orientations
T41 chain: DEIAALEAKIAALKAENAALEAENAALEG

B1: 4H2518-bH (peptide)
chain: DKIQELEKKNEELKRENWELEKKIQELKR
With B1 the interaction score (4H264-bH) was -1.77, the interaction score (4H56-bH) was -1.35 and the interaction score (4H3297-bH) was 0.251. It also gave an interaction score (4H717-bA) of -0.768, an interaction score (4H3041-bH) of 0.765 and an interaction score (4H2760-bH) of -0.186. The interaction score (4H949-bH) was 0.12, the interaction score (4H3974-bA) was 0.345 and the interaction score (4H349-bH) was -1.75. The interaction score (4H796-bH) was 0.388, the interaction score (4H2931-bH) was -0.584 and the interaction score (4H2859-bH) was -0.0624. For the same binder, the interaction score (4H584-bH) was 0.647, the interaction score (4H3381-bH) was 0.567 and the interaction score (4H2518-bH) was 1. For the same binder, the interaction score (4H2585-bH) was 0.0674, the interaction score (4H932-bH) was 0.604 and the interaction score (4H3364-bH) was 0.178. For the same binder, the interaction score (4H730-bH) was 0.0916.

B2: 4H883-bA (peptide)
chain: DEIAQLKQKIAELKQKNAELEWENAQLEQ
B2 showed an interaction score (4H967-bA) of -1.69, an interaction score (4H908-bA) of -1.33 and an interaction score (O5-bP) of -1.74. For the same binder, the interaction score (4H918-bA) was -1.15, the interaction score (4H953-bA) was -1.68 and the interaction score (O14-bA) was 0.814. It also gave an interaction score (4H883-bA) of -0.18.

B3: P5A-bP (peptide)
chain: DENKQLEQKIQRLKQKNQRLKWEIQKLEQ
With B3 the interaction score (P8A-bP) was -0.516, the interaction score (P5A-bP) was -1.57 and the interaction score (P6A-bP) was 1.7. The interaction score (P7A-bP) was -1.06 and the interaction score (P9A-bP) was -1.44.

B4: O14-AA (peptide)
chain: DENAALEAEIAALEAENAALEAKIAALKG
In the case of B4, the interaction score (O2-AA; mean of both orientations) is reported as 0.393, the interaction score (O4-AA) is reported as -0.13 and the interaction score (P9-AA) is reported as -1.61. For the same binder, the interaction score (O14-AA) was -1.46, the interaction score (O5-AA) was 1.3 and the interaction score (O6-AA) was 1.44. For the same binder, the interaction score (O7-AA) was 1.84, the interaction score (O8-AA) was -0.992 and the interaction score (P10-AA) was -0.458. The interaction score (O3-AA) was -1.47.

B5: O2-AA (peptide)
chain: DENAALEAKNAALKAKIAALKAKIAALKG
B5 was tested, and the interaction score (O2-AA) was -1.61, the interaction score (O4-AA) was -1.55 and the interaction score (P9-AA) was 0.934. It also gave an interaction score (O5-AA) of -1.37, an interaction score (O6-AA) of -1.77 and an interaction score (O7-AA) of -1.5. For the same binder, the interaction score (O8-AA) was 0.633, the interaction score (P10-AA) was 1.33 and the interaction score (O3-AA) was -1.26.
